Reference: patent publication US20220242969A1 (FREDAX, published 2022)

B1: h5A10-DFO (antibody, human IgG1, kappa, V domains shown)
VH: QVTLKESGPALVKPTQTLTLTCTFSGFSLSTTGMGVSWIRQPPGKALEWLAHIYWDDDKRYSTSLKTRLTISEDSSKNQVVLTMTNMDPVDTATYYCARKGYYGYFDYWGQGTLVTVSS
VL: DIQMTQSPSSLSASVGDRVTVTCRASQNVNTDVAWYQQKPGKAPKALIFSTSYLQSGVPSRFSGSGSGTDFTLTISSLQPEDFATYYCQQYSNYPLTFGQGTKVEIKR
modifications: DFO (deferoxamine) chelator conjugated to the antibody; sites and chain not stated
notes: Humanised 5A10 IgG1/kappa conjugated with the chelator DFO; also called h5A10-DFO (141203)
B2: h5A10-DTPA (antibody, human IgG1, kappa, V domains shown)
VH: B1 VH
VL: B1 VL
modifications: DTPA chelator conjugated to the antibody; sites and chain not stated
notes: Humanised 5A10 IgG1/kappa conjugated with the chelator DTPA; also called h5A10-DTPA (141203); DTPA-h5A10
B3: humanised monoclonal antibody 5A10 (h5A10) (antibody, human IgG1, kappa, V domains shown)
VH: B1 VH
VL: B1 VL
notes: also called hu5A10 (141203); h5A10 (141203)
B4: h5A10-DOTA (antibody, human IgG1, kappa, V domains shown)
VH: B1 VH
VL: B1 VL
modifications: DOTA chelator conjugated to the antibody; sites and chain not stated
notes: Humanised 5A10 IgG1/kappa conjugated with the chelator DOTA; also called h5A10-DOTA (141211)

Target: T1, prostate specific antigen (PSA) (human, UniProt P07288 25-261, limits assumed)
T1 construct: The antigen of the SPR study is only called 'PSA' (169 ug/ml, provided by Diaprost AB, Mw 30 000 Da); also called kallikrein III
Experiment: SPR (Biacore 3000), PSA amine-coupled on CM4 chip, antibody in solution
Method: All binding experiments were performed on CM4 chip on a Biacore™ 3000 instrument. The chip and all the reagents needed for activation, immobilization, deactivation, binding and regeneration were purchased from GE Healthcare and used according to the guidelines from the manufacturer.
The dissociation phase data was fitted and the dissociation rate constants (koff) were estimated (see Table 1). [0279] (e) Estimation of the association rate constant (kₒₙ)
In order to estimate the association rate constants, the dissociation rate constants (Table 1) were used in the fitted equations. [0281] (f) Estimation of the dissociation constant (kD)

T1 sequence (P07288 25-261 limits assumed): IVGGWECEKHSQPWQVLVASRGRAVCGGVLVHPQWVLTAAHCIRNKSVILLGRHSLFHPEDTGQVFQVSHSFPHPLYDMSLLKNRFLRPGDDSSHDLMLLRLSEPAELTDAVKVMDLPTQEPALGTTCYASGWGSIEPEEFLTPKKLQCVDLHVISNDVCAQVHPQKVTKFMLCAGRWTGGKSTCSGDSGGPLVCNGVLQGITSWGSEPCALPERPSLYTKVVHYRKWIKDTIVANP

Binder	Kd [nM]	koff [s⁻¹]	kon [M⁻¹ s⁻¹]
B1	0.05	8.3e-06	170000
B2	0.01	4.8e-06	390000
B3	0.01	4.8e-06	620000
B4	0.02	1.17e-05	540000
